# From the DeepSol protein solubility set
# Test: soluble on expression in E. coli; label from the status in PepcDB or PDB records
row,Sequence,soluble on expression in E. coli
1,STSTNNELTVSMMGTSTKEEVVSKVDEEDDDSSSDSDMDYGSDSEWAGYNVLAETEPEWDVDSFDGHEFKINPRVRQMYRSQELYDKYYNNRLKAFENKGFLSDHLNGIYDVYLDEKMDGYNSTRDFMAELANVCVKKHNETKGNTLELVNVVRATERGAATWRLYITFMAREFPDGPLVEYQAKVIKFLGVKDPFPVLCRAAPKPGI,soluble
2,STTEEESLSAAEEGYNVQRDYWRQAEESDGFDIENIKLPPGMHGRVMGLITYNCQLCYRYPFPVLVKLYAKFGLHRYNLIKGTSFELAALMKFNMLQNYMSSFYMTLLAHDPDPAASSSQKTFQVRVDEQQFGTLGINCSIARPKHEGDLLEVSTKTPFIPHFHGGALGDGIFKGELPDCLSDDALNALMEAVSKDELPEHVLDDALYARAGGIFQGELPDWPSDDALNDGKRFYMLKESEWQATDWISMYLELVITTTDRSITEPEVLSKLEIVKVAIETATKDEEPSNERLKAYRAHFYITFKGLAEPRAPRQVFEIGEHVERQAIVRRVMGHRGDLTLKGKLCGGQYIKRRSLALKSGEESPNCKKQTRVG,soluble
3,STYEYKRELREGARGKWINLRQHLNSGTRLEKELIKVDRQIDKKAAEIKEIEDLLFKIEQYKAENNIR,not soluble
4,SVRRKSCIVKEMEKMKNKREEKRAQNSELRIKRAQEYDSSFPNWEFARMIKEFRVTMECSPLTVTDPIEEHRICVCVRKRPLNKQELAKKEIDVISVPSKCLLLVHEPKLKVDLTKYLENQAFCFDFAFDETASNEVVYRFTARPLVQTIFEGGKATCFAYGQTGSGKTHTMGGDLSGKSQNASKGIYAMASRDVFLLKNQPRYRNLNLEVYVTFFEIYNGKVFDLLNKKAKLRVLEDSRQQVQVVGLQEYLVTCADDVIKMINMGSACRTSGQTFANSNSSRSHACFQILLRTKGRLHGKFSLVDLAGNERGADTSSADRQTRMEGAEINKSLLALKECIRALGQNKAHTPFRESKLTQVLRDSFIGENSRTCMIAMISPGISSCEYTLNTLRYADRVKELSHHHHHHH,soluble
5,SWMEEVIKLCGRELVRAQIAICGMSTWS,soluble
6,SWSGLLPPGLNESDAESNSEDEATLENSGLNLQEDKEDESIRKTEIIDFSTDEPKTETESNVNAYEECPSGIPIDMWNKFQELHKKHSEQKSTTSRFRGKRRKRSRKDKLKNEKELHSEPSSNETQWKELTQYFGVNDRFDPPVKRKKVEKSGLEKRIDQAVEEWNIEKAEELSNQLATRELGVKIAKAVACHNFVKAKKEVENSQAARKKKKLAWGFEAKKRWETKSNMGYM,soluble
7,SYHLDTTAPPPTNLSTLPNNTLFHLWRPRAHILPAEGQIGDPCAHYTDPSTGLFHVGFLHDGDGIAGATTANLATYTDTSDNGSFLIQPGGKNDPVAVFDGAVIPVGVNNTPTLLYTSVSFLPIHWSIPYTRGSETQSLAVARDGGRRFDKLDQGPVIADHPFAVDVTAFRAPFVFRSARLDVLLSLDEEVARNETAVQQAVDGWTEKNAPWYVAVSGGVHGVGPAQFLYRQNGGNASEFQYWEYLGEWWQEATNSSWGDEGTWAGRWGFNFETGNVLFLTEEGHDPQTGEVFVTLGTEGSGLPIVPQVSSIHDMLWAAGEVGVGSEQEGAKVEFSPSMAGFLDWGFSAYAAAGKVLPASSAVSKTSGVEVDRYVSFVWLTGDQYEQADGFPTAQQGWTGSLLLPRELKVQTVENVVDNELVREEGVSWVVGESDNQTATLRTLGITIARETKAALLANGSVTAEEDRTLQTAAVVPFAQSPSSKFFVLTAQLEFPASARSSPLQSGFEILASELERTAIYYQFSNESLVVDRSQTSAAAPTNPGLDSFTESGKLRLFDVIENGQEQVETLDLTVVVDNAVVEVYANGRFALSTWARSWYDNSTQIRFFHNGEGEVQFRNVSVSEGLYNAWPER,soluble
8,SYLGSEFDNVELKDLANVLSFGEAKLGDNGQKFNFLFHTASSNVWVPSIKCTSESCESKNHYDSSKSKTYEKDDTPVKLTSKAGTISGIFSKDLVTIGKLSVPYKFIEMTEIVGFEPFYSESDVDGVFGLGWKDLSIGSIDPYIVELKTQNKIEQAVYSIYLPPENKNKGYLTIGGIEERFFDGPLNYEKLNHDLMWQVDLDVHFGNVSSKKANVILDSATSVITVPTEFFNQFVESASVFKVPFLSLYVTTCGNTKLPTLEYRSPNKVYTLEPKQYLEPLENIFSALCMLNIVPIDLEKNTFVLGDPFMRKYFTVYDYDNHTVGFALAKNL,soluble
9,SYPSLFAPLDLGFTTLKNRVLMGSMHTGLEEYPDGAERLAAFYAERARHGVALIVSGGIAPDLTGVGMEGGAMLNDASQIPHHRTITEAVHQEGGKIALQILHTGRYSYQPHLVAPSALQAPINRFVPHELSHEEILQLIDNFARCAQLAREAGYDGVEVMGSEGYLINEFLTLRTNQRSDQWGGDYRNRMRFAVEVVRAVRERVGNDFIIIYRLSMLDLVEDGGTFAETVELAQAIEAAGATIINTGIGWHEARIPTIATPVPRGAFSWVTRKLKGHVSLPLVTTNRINDPQVADDILSRGDADMVSMARPFLADAELLSKAQSGRADEINTCIGCNQACLDQIFVGKVTSCLVNPRACHETKMPILPAVQKKNLAVVGAGPAGLAFAINAAARGHQVTLFDAHSEIGGQFNIAKQIPGKEEFYETLRYYRRMIEVTGVTLKLNHTVTADQLQAFDETILASGIVPRTPPIDGIDHPKVLSYLDVLRDKAPVGNKVAIIGCGGIGFDTAMYLSQPGESTSQNIAGFCNEWGIDSSLQQAGGLSPQGMQIPRSPRQIVMLQRKASKPGQGLGKTTGWIHRTTLLSRGVKMIPGVSYQKIDDDGLHVVINGETQVLAVDNVVICAGQEPNRALAQPLIDSGKTVHLIGGCDVAMELDARRAIAQGTRLALEI,soluble
10,TAELKICRVNRNSGSCLGGDEIFLLCDKVQKEDIEVYFTGPGWEARGSFSQADVHRQVAIVFRTPPYADPSLQAPVRVSMQLRRPSDRELSEPMEFQYLPDTDDRHRIEEKRKRTYETFKSIMKKSPFNGPTEPRP,soluble
11,TAGFSLNVLTINTHKGFTAFNRRFILPELRDAVRSVSADIVCLQEVMGAHEVHPLHIENWPDTTHYEFLADTMWSDYAYGRNAVYPEGHHGNAVLSRFPIEYYENRDISVGNGEKRGLLYCRIVPPRSGITIHVICVHLGLRADQRQAQLTMLAEWVNTLPAGEPVVVAGDFNDWRQQANQPLKAQAGLEEIFTRARGRPARTFPVSFPLLRLDRIYVKNAHASRPKALALKQWRHLSDHAPLSVEIHL,not soluble
12,TAPTLAEEVKQQSDGSVIIEGSANLRDLNKLFNWHLPINEVRTFNGLILEHLEKIPIEGTQFRLNQLNITVLEVADNMVKKVKVELIE,soluble
13,TAYLGPAGSWTHQACLDLYGADGLVPLSREALFAAYADGKVERACVPVATSVVGLTPYMEDVLALPRVVVVAEYPKMLGYSLLARPGTRREDIKEVHAHPVAFEEVRPWLEREMPGARRVPAASGGAAAQAVAASATQDKASFGPRVGASVYQLVSLADGIEEGPHNVTRWWVLGRDMP,not soluble
14,TDLSQRPRRLRKSPALRAMFEETTLSLNDLVLPIFVEEEIDDYKAVEAMPGVMRIPEKHLAREIERIANAGIRSVMTFGISHHTDETGSDAWREDGLVARMSRICKQTVPEMIVMSDTCFCEYTSHGHCGVLKEHGVDNDATLENLGKQAVVAAAAGADFIAPSAAMDGQVQAIRQALDAAGFKDTAIMSYSTKFASSFYGPFREAAGSALKGDRKSYQMNPMNRREAIRESLLDEAQGADCLMVKPAGAYLDIVRELRERTELPIGAYQVSGEYAMIKFAALAGAIDEEKVVLESLGSIKRAGADLIFSYFALDLAEKKILR,soluble
15,TEERLKEIEAKYDEIAKDWPKKVKHVLHEEHELELTRVQVYTCDKCEEEGTIWSYHCDECDFDLHAKCALNEDTKE,soluble
16,TEKARDLFDKLMTQIQLDDTAKEHPLIQNGRIDKVIVHQQSRLWEFHLSFDELMPVMLYQTFMQQLELAFQQIAQVSVQITTNQTTFTEEQLTDYWQLALLNSQCNTPLVQKVLKTQTPQFEDRKIILPVDNEAVIPYLKQQYLPIIEELYFSYGF,not soluble
17,TEKKYIVALDQGTTSSRAVVMDHDANIISVSQREFEQIYPKPGWVEHDPMEIWATQSSTLVEVLAKADISSDQIAAIGITNQRETTIVWEKETGKPIYNAIVWQCRRTAEICEHLKRDGLEDYIRSNTGLVIDPYFSGTKVKWILDHVEGSRERARRGELLFGTVDTWLIWKMTQGRVHVTDYTNASRTMLFNIHTLDWDDKMLEVLDIPREMLPEVRRSSEVYGQTNIDGKGGTRIPISGIAGDQQAALFGQLCVKEGMAKNTYGTGCFMLMNTGEKAVKSENGLLTTIACGPTGEVNYALEGAVFMAGASIQWLRDEMKLINDAYDSEYFATKVQNTNGVYVVPAFTGLGAPYWDPYARGAIFGLTRGVNANHIIRATLESIAYQTRDVLEAMQADSGIRLHALRVDGGAVANNFLMQFQSDILGTRVERPEVREVTALGAAYLAGLAVGFWQNLDELQEKAVIEREFRPGIETTERNYRYAGWKKAVKRAMAWEEHDQLYTRASQPELAPEDPEDLEHHHHHH,soluble
18,TFKHSRDILGRTFDILVIDLSYDYSPNDLGRIIETVRGGGLIFVLTNPFEKWKDMWTGFHKSLVTPPYTIEDVKKRFNRRLIRKFTEHKGIYIVNTDRMSIERKPG,not soluble
19,THCHLKNGEYHIDLIPQRLRGEIASFDIHVPETGELIVEQGRRITARHIKQMEKSQMQDLVVPRDYLIGKTLAKNIIDTSTGEFLAQANDEITEELLDAMANHG,not soluble
20,THSEEEIKIIASESQKGGVLDEFETEIIRNAVDFSDTVAKEIMTPRKDMICLNKQKSYEENMQIICEHKHTRFPYIDGSKDTILGMIHIRDIIQNELNHKSQNLDTFVKPLILVPENISISKVLVMMNKERSHTALVVDEYGGTAGILTMEDIMEEIIGEIKSEHEEDSYKKLA,soluble
21,TILVAIANDSVSPAVIDTAVRLADGLDEELYVVHLVDENTADGTAMQLRDEMRDRFRDATVVATVAIEHVGRSAMRSGTRIGNELLELAADVDVQHIVMGHEPKGLAGRLREGDAAVAVIDAADVPVTIVPEG,not soluble
22,TKDFSWDTTLSFTWSKEKINSLPTGDLIKENLFEGQPIHALYDYKYAGIWGSNVPQETLDAYGVKPGWVKIETLDKDGDGGVHKYGEDDRQILGHTNPDVILGLNNTLTYKNFDLSIFAMARYGQTIKSSLIGWYRASSNYSINQPAGVDYWTENNQGAYYPVPGSGDEQKVMSALTYRDGSFIKVKNITLGYTLPQSVSRKVLMEKCRFYATAYNPFLYVKDKELRGTDPETNGSDAFPLYKQFVFGINVTF,not soluble
23,TKTEALTAEEAAKQYTNSLVEKALKAEKVYATYTQEQVDKIVAAMALAGSEASLQLAKEAHDETGRGVVEDKDTKNHFATEYVYERIKNEKTVGIIGEDKVAGSIEIAAPLGVLAGIVPTTNPTSTTMFKILVALKTRNAIVFAFHPAAQKCSAHAAQILYDAAVKAGAPENIVQWIETPSIANTGALISNKGIASILATGGPGMVNAALKSGNPSMGVGAGNGAVYVDATANLERAVEDLLLSKRFDNGMICATE,not soluble
24,TLAAKAAEIHPTSLDTRLDVAAAPAELQQVAQSFNAMLERLDDGYQRLQQFSADLAHEIRTPIGSLMGHGQVALRQPRSNEEYQALIASNQEELERIARMVESILFLARADDVRAAVERSRLDLGEELRRQAEYFEGLAEERGLSLDVQVSGQLRADPQLFRRALSNLLANAIRYASADSLIEVRGLRRSGEFLLSVENACDRLPAEPLSRLFDRFYRGDAARSDAQSSGLGLAIVQAIMRLHGGRAEASAPAPGRIRFDLAFPAQD,not soluble
